Reference: IntAct's records for PubMed 29892012

B1: E3 ubiquitin-protein ligase LNX (Homo sapiens), Q8TBB1 (parent)
chain: MNQPESANDPEPLCAVCGQAHSLEENHFYSYPEEVDDDLICHICLQALLDPLDTPCGHTYCTLCLTNFLVEKDFCPMDRKPLVLQHCKKSSILVNKLLNKLLVTCPFREHCTQVLQRCDLEHHFQTSCKGASHYGLTKDRKRRSQDGCPDGCASLTATAPSPEVSAAATISLMTDEPGLDNPAYVSSAEDGQPAISPVDSGRSNRTRARPFERSTIRSRSFKKINRALSVLRRTKSGSAVANHADQGRENSENTTAPEVFPRLYHLIPDGEITSIKINRVDPSESLSIRLVGGSETPLVHIIIQHIYRDGVIARDGRLLPGDIILKVNGMDISNVPHNYAVRLLRQPCQVLWLTVMREQKFRSRNNGQAPDAYRPRDDSFHVILNKSSPEEQLGIKLVRKVDEPGVFIFNVLDGGVAYRHGQLEENDRVLAINGHDLRYGSPESAAHLIQASERRVHLVVSRQVRQRSPDIFQEAGWNSNGSWSPGPGERSNTPKPLHPTITCHEKVVNIQKDPGESLGMTVAGGASHREWDLPIYVISVEPGGVISRDGRIKTGDILLNVDGVELTEVSRSEAVALLKRTSSSIVLKALEVKEYEPQEDCSSPAALDSNHNMAPPSDWSPSWVMWLELPRCLYNCKDIVLRRNTAGSLGFCIVGGYEEYNGNKPFFIKSIVEGTPAYNDGRIRCGDILLAVNGRSTSGMIHACLARLLKELKGRITLTIVSWPGTFL
partner: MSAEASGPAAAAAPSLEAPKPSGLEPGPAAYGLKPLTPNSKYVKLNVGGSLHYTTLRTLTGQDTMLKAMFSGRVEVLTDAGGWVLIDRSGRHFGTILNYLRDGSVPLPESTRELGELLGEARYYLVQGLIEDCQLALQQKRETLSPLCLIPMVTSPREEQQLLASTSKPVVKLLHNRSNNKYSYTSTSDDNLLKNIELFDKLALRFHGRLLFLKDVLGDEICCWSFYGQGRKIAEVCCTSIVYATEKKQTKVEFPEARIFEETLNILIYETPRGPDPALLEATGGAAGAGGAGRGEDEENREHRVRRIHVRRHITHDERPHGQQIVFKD
B2: Ras GTPase-activating protein-binding protein 2 (Homo sapiens), Q9UN86 (parent)
chain: MVMEKPSPLLVGREFVRQYYTLLNKAPEYLHRFYGRNSSYVHGGVDASGKPQEAVYGQNDIHHKVLSLNFSECHTKIRHVDAHATLSDGVVVQVMGLLSNSGQPERKFMQTFVLAPEGSVPNKFYVHNDMFRYEDEVFGDSEPELDEESEDEVEEEQEERQPSPEPVQENANSGYYEAHPVTNGIEEPLEESSHEPEPEPESETKTEELKPQVEEKNLEELEEKSTTPPPAEPVSLPQEPPKAFSWASVTSKNLPPSGTVSSSGIPPHVKAPVSQPRVEAKPEVQSQPPRVREQRPRERPGFPPRGPRPGRGDMEQNDSDNRRIIRYPDSHQLFVGNLPHDIDENELKEFFMSFGNVVELRINTKGVGGKLPNFGFVVFDDSEPVQRILIAKPIMFRGEVRLNVEEKKTRAARERETRGGGDDRRDIRRNDRGPGGPRGIVGGGMMRDRDGRGPPPRGGMAQKLGSGRGTGQMEGRFTGQRR
B3: E3 ubiquitin-protein ligase LNX (Homo sapiens), Q8TBB1 (parent)
chain: B1 chain
partner: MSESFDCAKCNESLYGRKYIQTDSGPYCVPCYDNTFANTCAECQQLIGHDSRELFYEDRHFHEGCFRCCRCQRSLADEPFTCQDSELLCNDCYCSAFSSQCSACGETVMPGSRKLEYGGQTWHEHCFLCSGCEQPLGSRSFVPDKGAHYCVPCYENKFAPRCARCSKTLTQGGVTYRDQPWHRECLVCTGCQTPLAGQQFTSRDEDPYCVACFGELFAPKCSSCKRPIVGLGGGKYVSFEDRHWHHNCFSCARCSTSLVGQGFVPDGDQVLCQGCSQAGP
B4: E3 ubiquitin-protein ligase LNX (Homo sapiens), Q8TBB1 (parent)
chain: B1 chain
partner: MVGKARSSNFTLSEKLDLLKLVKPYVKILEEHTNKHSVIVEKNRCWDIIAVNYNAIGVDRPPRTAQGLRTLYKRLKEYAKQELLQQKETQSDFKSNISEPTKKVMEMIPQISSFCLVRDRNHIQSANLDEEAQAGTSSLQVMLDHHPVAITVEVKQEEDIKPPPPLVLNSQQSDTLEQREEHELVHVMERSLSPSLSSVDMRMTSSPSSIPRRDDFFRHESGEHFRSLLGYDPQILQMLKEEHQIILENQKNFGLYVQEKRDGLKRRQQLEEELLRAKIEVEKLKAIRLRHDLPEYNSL
B5: E3 ubiquitin-protein ligase LNX (Homo sapiens), Q8TBB1 (parent)
chain: B1 chain
partner: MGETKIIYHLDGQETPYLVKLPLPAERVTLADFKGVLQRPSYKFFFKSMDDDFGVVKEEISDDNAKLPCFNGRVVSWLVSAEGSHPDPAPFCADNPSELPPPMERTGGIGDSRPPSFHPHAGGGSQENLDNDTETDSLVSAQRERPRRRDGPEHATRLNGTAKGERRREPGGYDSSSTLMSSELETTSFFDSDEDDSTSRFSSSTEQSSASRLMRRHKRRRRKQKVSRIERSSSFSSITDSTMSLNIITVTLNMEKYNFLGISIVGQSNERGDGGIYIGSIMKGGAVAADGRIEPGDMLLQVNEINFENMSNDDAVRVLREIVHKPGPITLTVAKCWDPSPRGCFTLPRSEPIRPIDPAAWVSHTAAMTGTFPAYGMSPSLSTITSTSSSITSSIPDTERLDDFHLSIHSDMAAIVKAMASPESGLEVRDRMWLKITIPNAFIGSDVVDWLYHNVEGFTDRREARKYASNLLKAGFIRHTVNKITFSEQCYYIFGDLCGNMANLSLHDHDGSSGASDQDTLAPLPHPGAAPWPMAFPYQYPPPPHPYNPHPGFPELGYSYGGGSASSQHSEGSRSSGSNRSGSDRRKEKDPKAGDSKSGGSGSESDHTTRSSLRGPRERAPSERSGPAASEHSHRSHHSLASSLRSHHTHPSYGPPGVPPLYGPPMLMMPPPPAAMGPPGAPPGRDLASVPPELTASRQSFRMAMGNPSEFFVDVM
B6: Vasculin (Homo sapiens), Q86WP2 (parent)
chain: MAQHDFAPAWLNFPTPPSSTKSSLNFEKHSENFAWTENRYDVNRRRHNSSDGFDSAIGRPNGGNFGRKEKNGWRTHGRNGTENINHRGGYHGGSSRSRSSIFHAGKSQGLHENNIPDNETGRKEDKRERKQFEAEDFPSLNPEYEREPNHNKSLAAGVWEYPPNPKSRAPRMLVIKKGNTKDLQLSGFPVVGNLPSQPVKNGTGPSVYKGLVPKPAAPPTKPTQWKSQTKENKVGTSFPHESTFGVGNFNAFKSTAKNFSPSTNSVKECNRSNSSSPVDKLNQQPRLTKLTRMRTDKKSEFLKALKRDRVEEEHEDESRAGSEKDDDSFNLHNSNSTHQERDINRNFDENEIPQENGNASVISQQIIRSSTFPQTDVLSSSLEAEHRLLKEMGWQEDSENDETCAPLTEDEMREFQVISEQLQKNGLRKNGILKNGLICDFKFGPWKNSTFKPTTENDDTETSSSDTSDDDDV
partner: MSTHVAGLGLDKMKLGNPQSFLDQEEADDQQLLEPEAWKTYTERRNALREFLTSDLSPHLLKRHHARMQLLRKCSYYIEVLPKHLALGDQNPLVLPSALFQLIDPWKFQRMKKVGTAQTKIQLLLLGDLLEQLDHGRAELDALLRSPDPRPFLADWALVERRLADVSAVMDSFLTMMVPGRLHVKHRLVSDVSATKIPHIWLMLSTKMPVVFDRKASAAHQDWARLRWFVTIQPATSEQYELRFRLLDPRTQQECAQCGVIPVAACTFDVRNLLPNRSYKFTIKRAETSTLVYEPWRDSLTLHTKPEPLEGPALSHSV
B7: BRCA1-A complex subunit RAP80 (Homo sapiens), Q96RL1 (parent)
chain: MPRRKKKVKEVSESRNLEKKDVETTSSVSVKRKRRLEDAFIVISDSDGEEPKEENGLQKTKTKQSNRAKCLAKRKIAQMTEEEQFALALKMSEQEAREVNSQEEEEEELLRKAIAESLNSCRPSDASATRSRPLATGPSSQSHQEKTTDSGLTEGIWQLVPPSLFKGSHISQGNEAEEREEPWDHTEKTEEEPVSGSSGSWDQSSQPVFENVNVKSFDRCTGHSAEHTQCGKPQESTGRGSAFLKAVQGSGDTSRHCLPTLADAKGLQDTGGTVNYFWGIPFCPDGVDPNQYTKVILCQLEVYQKSLKMAQRQLLNKKGFGEPVLPRPPSLIQNECGQGEQASEKNECISEDMGDEDKEERQESRASDWHSKTKDFQESSIKSLKEKLLLEEEPTTSHGQSSQGIVEETSEEGNSVPASQSVAALTSKRSLVLMPESSAEEITVCPETQLSSSETFDLEREVSPGSRDILDGVRIIMADKEVGNKEDAEKEVAISTFSSSNQVSCPLCDQCFPPTKIERHAMYCNGLMEEDTVLTRRQKEAKTKSDSGTAAQTSLDIDKNEKCYLCKSLVPFREYQCHVDSCLQLAKADQGDGPEGSGRACSTVEGKWQQRLKNPKEKGHSEGRLLSFLEQSEHKTSDADIKSSETGAFRVPSPGMEEAGCSREMQSSFTRRDLNESPVKSFVSISEATDCLVDFKKQVTVQPGSRTRTKAGRGRRRKF
partner: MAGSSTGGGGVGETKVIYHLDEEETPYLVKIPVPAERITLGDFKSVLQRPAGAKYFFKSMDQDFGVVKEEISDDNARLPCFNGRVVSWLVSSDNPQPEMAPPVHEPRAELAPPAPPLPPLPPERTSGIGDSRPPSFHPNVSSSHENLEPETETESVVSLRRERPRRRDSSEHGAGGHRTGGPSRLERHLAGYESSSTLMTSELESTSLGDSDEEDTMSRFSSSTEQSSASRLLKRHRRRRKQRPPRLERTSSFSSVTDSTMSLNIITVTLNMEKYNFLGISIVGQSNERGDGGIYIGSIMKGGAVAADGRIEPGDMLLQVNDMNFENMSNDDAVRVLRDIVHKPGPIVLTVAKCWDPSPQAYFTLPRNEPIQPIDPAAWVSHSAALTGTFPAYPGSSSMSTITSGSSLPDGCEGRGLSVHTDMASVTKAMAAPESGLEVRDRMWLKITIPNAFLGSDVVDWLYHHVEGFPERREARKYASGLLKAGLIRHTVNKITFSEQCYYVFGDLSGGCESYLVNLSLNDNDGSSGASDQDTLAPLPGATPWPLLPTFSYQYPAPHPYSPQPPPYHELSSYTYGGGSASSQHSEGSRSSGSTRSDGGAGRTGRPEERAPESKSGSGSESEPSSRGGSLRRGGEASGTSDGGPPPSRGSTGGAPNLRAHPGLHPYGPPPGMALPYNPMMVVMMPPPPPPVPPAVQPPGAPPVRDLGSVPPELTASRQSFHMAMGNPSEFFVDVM

Variants of: B1
Details: with bacd1_human KCTD13, Q8WZ19

effect of a mutation on the interaction	Variant
disrupting interaction strength	E295K

Variants of: B2
Details: with ubp10_human USP10, Q14694
ubp10_human USP10, Q14694, sequence (Q14694 whole entry): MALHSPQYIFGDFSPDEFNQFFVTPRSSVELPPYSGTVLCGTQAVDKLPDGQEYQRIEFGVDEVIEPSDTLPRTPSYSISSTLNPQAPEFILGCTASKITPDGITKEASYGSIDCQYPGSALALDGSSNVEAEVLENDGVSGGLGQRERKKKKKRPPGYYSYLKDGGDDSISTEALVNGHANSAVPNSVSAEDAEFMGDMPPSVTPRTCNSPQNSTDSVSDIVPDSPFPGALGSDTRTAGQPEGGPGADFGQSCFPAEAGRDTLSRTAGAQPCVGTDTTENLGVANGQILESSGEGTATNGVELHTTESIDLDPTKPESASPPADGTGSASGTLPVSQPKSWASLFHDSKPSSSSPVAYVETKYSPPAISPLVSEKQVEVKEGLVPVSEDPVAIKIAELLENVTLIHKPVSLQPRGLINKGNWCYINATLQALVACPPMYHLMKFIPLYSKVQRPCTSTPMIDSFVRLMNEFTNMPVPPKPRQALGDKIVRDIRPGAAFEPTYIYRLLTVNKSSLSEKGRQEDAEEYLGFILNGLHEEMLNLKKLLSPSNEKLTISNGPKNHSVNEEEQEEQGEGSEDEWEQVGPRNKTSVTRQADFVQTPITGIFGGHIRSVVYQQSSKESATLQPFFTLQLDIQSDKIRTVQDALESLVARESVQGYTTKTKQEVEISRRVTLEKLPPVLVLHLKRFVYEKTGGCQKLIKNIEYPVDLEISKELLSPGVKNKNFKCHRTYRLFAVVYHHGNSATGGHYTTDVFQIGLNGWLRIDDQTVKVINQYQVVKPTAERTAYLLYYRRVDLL

effect of a mutation on the interaction	Variant
with no effect	MVMEKPSPLLVGREFVRQYYTLLNKAPEYLHRFYGRNSSYVHGGVDASGKPQEAVYGQNDIHHKVLSLNFSECHTKIRHVDAHATLSDGVVVQVMGLLSNSGQPERKFMQTFVLAPEGSVPNKFYVHNDMFRYEDEVFGDSEPELDEESEDEVEEEQEERQPSPEPVQENANSGYYEAHPVTNGIEEPLEESSHEPEPEPESETKTEEPKPQVEEKNLEELEEKSTTPPPAEPVSLPQEPPKAFSWASVTSKNLPPSGTVSSSGIPPHVKAPVSQPRVEAKPEVQSQPPRVREQRPRERPGFPPRGPRPGRGDMEQNDSDNRRIIRYPDSHQLFVGNLPHDIDENELKEFFMSFGNVVELRINTKGVGGKLPNFGFVVFDDSEPVQRILIAKPIMFRGEVRLNVEEKKTRAARERETRGGGDDRRDIRRNDRGPGGPRGIVGGGMMRDRDGRGPPPRGGMAQKLGSGRGTGQMEGRFTGQRR [L209P]

Variants of: B3
Details: with fhl3_human FHL3, Q13643

effect of a mutation on the interaction	Variant
disrupting interaction strength	E295K

Variants of: B4
Details: with fsbp_human FSBP

effect of a mutation on the interaction	Variant
disrupting interaction strength	E295K

Variants of: B5
Details: with dvl3_human DVL3, Q92997

effect of a mutation on the interaction	Variant
disrupting interaction strength	E295K

Variants of: B6
Details: with fnd11_human FNDC11, Q9BVV2

effect of a mutation on the interaction	Variant
with no effect	MAQHDFAPAWLNFPTPPSSTKSSLNFEKHSENFAWTENRYDVNRRRHNSSDGFDSAIGRPNGGNFGRKEKNGWRTHGRNGTENINHRGGYHGGSSRSRSSIFHAGKSQGLHENNIPDNETGRKEDKRECKQFEAEDFPSLNPEYEREPNHNKSLAAGVWEYPPNPKSRAPRMLVIKKGNTKDLQLSGFPVVGNLPSQPVKNGTGPSVYKGLVPKPAAPPTKPTQWKSQTKENKVGTSFPHESTFGVGNFNAFKSTAKNFSPSTNSVKECNRSNSSSPVDKLNQQPRLTKLTRMRTDKKSEFLKALKRDRVEEEHEDESRAGSEKDDDSFNLHNSNSTHQERDINRNFDENEIPQENGNASVISQQIIRSSTFPQTDVLSSSLEAEHRLLKEMGWQEDSENDETCAPLTEDEMREFQVISEQLQKNGLRKNGILKNGLICDFKFGPWKNSTFKPTTENDDTETSSSDTSDDDDV [R129C]

Variants of: B7
Details: with dvl2_human DVL2, O14641

effect of a mutation on the interaction	Variant
disrupting interaction strength	R34H

Variants of: B7
Details: with dvl2_human DVL2, O14641
Remark: another data set of the same source

effect of a mutation on the interaction	Variant
with no effect	Q631E
